{"source": "paper PMC10987521", "about": "“An all-in-one tetrazine reagent for cysteine-selective labeling and bioorthogonal activable prodrug construction” (Nature Communications, 2024)", "key": {"[1]": {"type": "physicochemical", "conditions": "PBS pH 7.4, 10% DMSO, 37 °C; for intact (%) under 10 mM GSH at 2 μM: 520 nm HPLC–MS; for intact (%) under 10 mM GSH: 520 nm HPLC–MS (PyTz UV–Vis)", "experimental": "All tetrazine compounds were diluted to a concentration of 50 μM or 2 μM using PBS (10% DMSO, pH 7.4). A stock solution of GSH (400 mM in PBS) was then added to achieve a final concentration of 10 mM. The mixture was homogenized and incubated at 37 °C for 12 h. The stability of the compounds (including all peptide conjugates and PmTz) was assessed by measuring the decrease in peak area at 520 nm (with the initial peak area at 0 min defined as 100%). This measurement was monitored by HPLC–MS. Similarly, the stability of PyTz was determined by monitoring the decrease in peak intensity at 520 nm using UV–Vis. Statistical analysis was performed on data from three replicates to calculate the mean and standard deviation. […]\nResponse 1: We appreciate your comment. We conducted stability tests on RGD-Dox and RGD-SN-38 in 10 mM GSH at a concentration of 2 μM, which is below the critical micelle concentrations. After incubating at 37 °C for 12 hours, we observed that 95% of RGD-Dox and 85% of RGD-SN-38 remained intact. This stability is slightly less than […]\nthe observed stability is intrinsic to the peptide-drug conjugates, with a slight enhancement due to micelle […]\nconcentrations, after 12 hours of incubation at 37 °C (Figure S46). […]\nintrinsic to the PDCs, with a slight enhancement by micelle formation.\nDetails of these experiments have been included in the Supplementary Information (Page S42), as outlined below:\nRGD-Dox and RGD-SN-38 were diluted to a concentration of 2 μM using PBS (10% DMSO, pH 7.4). A stock solution of GSH (400 mM in PBS) was then added to achieve a final concentration of 10 mM. The mixture was homogenized and incubated at 37 °C for 12 hours. Stability was assessed by measuring the decrease in peak area at 520 nm (with the initial peak area at 0 min defined as 100%). This measurement was monitored by HPLC–MS. Statistical analysis was performed on data from three replicates to calculate the mean and standard deviation."}, "[2]": {"assay": "Accumulation of RGD-Dox at various time points in tumor tissues", "type": "in vivo, mice", "conditions": "for tissue level at time molar at 0.5 h / tissue level at time molar at 1 h / tissue level at time molar at 2 h / tissue level at time molar at 4 h / tissue level at time molar at 6 h: BALB/c nude, mouse, tumor tissue, iv, 3.67 umol⸱/kg", "experimental": "13. In vivo anticancer efficacy\n13.1 The accumulation of RGD-Dox at various time points in tumor tissues When the tumor volume reached approximately 400 mm3, five mice in each group received an i.v. injection of 3.67 μmol⸱kg-1 RGD-Dox. After various time intervals, the mice were sacrificed, and tumor tissues were dissected. About 0.5 to 1 g of tissue was ground into a homogenate, and proteins were precipitated by the adding two volumes of acetonitrile (1 mL). After centrifugation, the supernatant was removed, concentrated to 100 µL, and 20 µL was used for HPLC–MS analysis. The RGD-Dox concentration in the sample was determined from a standard curve of the peak area of the characteristic absorption of RGD-Dox at 520 nm. […]"}}, "note": "Where two headings read alike, the source gives them in different places.", "data": [{"smiles": "COc1cccc2c1C(=O)c1c(O)c3c(c(O)c1C2=O)C[C@@](O)(C(=O)CO)C[C@@H]3O[C@H]1C[C@H](NC(=O)OCc2nnc(CCSC[C@@H]3NC(=O)[C@@H](Cc4ccc(O)cc4)NC(=O)[C@H](CC(=O)O)NC(=O)CNC(=O)[C@H](CCCNC(=N)N)NC3=O)nn2)[C@H](O)[C@H](C)O1", "note": "[RGD-Dox]", "values": [{"measurement": "intact (%) under 10 mM GSH at 2 μM", "setting": "[1]; 1 h, Data 1, 2 μM (below CMC)", "result": 98, "unit": "%"}, {"measurement": "intact (%) under 10 mM GSH", "setting": "[1]; 1 h, Data 1, 50 μM", "result": 98.414, "unit": "%"}, {"measurement": "intact (%) under 10 mM GSH at 2 μM", "setting": "[1]; 1 h, Data 2, 2 μM (below CMC)", "result": 96.5, "unit": "%"}, {"measurement": "intact (%) under 10 mM GSH", "setting": "[1]; 1 h, Data 2, 50 μM", "result": 98.1, "unit": "%"}, {"measurement": "intact (%) under 10 mM GSH at 2 μM", "setting": "[1]; 1 h, Data 3, 2 μM (below CMC)", "result": 98, "unit": "%"}, {"measurement": "intact (%) under 10 mM GSH", "setting": "[1]; 1 h, Data 3, 50 μM", "result": 97, "unit": "%"}, {"measurement": "intact (%) under 10 mM GSH at 2 μM", "setting": "[1]; 3 h, Data 1, 2 μM (below CMC)", "result": 93.4, "unit": "%"}, {"measurement": "intact (%) under 10 mM GSH", "setting": "[1]; 3 h, Data 1, 50 μM", "result": 95.9241, "unit": "%"}, {"measurement": "intact (%) under 10 mM GSH at 2 μM", "setting": "[1]; 3 h, Data 2, 2 μM (below CMC)", "result": 94.4, "unit": "%"}, {"measurement": "intact (%) under 10 mM GSH", "setting": "[1]; 3 h, Data 2, 50 μM", "result": 96.1928, "unit": "%"}, {"measurement": "intact (%) under 10 mM GSH at 2 μM", "setting": "[1]; 3 h, Data 3, 2 μM (below CMC)", "result": 94.5, "unit": "%"}, {"measurement": "intact (%) under 10 mM GSH", "setting": "[1]; 3 h, Data 3, 50 μM", "result": 97.3114, "unit": "%"}, {"measurement": "intact (%) under 10 mM GSH at 2 μM", "setting": "[1]; 5 h, Data 1, 2 μM (below CMC)", "result": 94.7, "unit": "%"}, {"measurement": "intact (%) under 10 mM GSH at 2 μM", "setting": "[1]; 5 h, Data 2, 2 μM (below CMC)", "result": 95, "unit": "%"}, {"measurement": "intact (%) under 10 mM GSH at 2 μM", "setting": "[1]; 5 h, Data 3, 2 μM (below CMC)", "result": 94.9, "unit": "%"}, {"measurement": "intact (%) under 10 mM GSH at 2 μM", "setting": "[1]; 8 h, Data 1, 2 μM (below CMC)", "result": 95, "unit": "%"}, {"measurement": "intact (%) under 10 mM GSH", "setting": "[1]; 8 h, Data 1, 50 μM", "result": 93.681, "unit": "%"}, {"measurement": "intact (%) under 10 mM GSH at 2 μM", "setting": "[1]; 8 h, Data 2, 2 μM (below CMC)", "result": 95.7, "unit": "%"}, {"measurement": "intact (%) under 10 mM GSH", "setting": "[1]; 8 h, Data 2, 50 μM", "result": 93.4607, "unit": "%"}, {"measurement": "intact (%) under 10 mM GSH at 2 μM", "setting": "[1]; 8 h, Data 3, 2 μM (below CMC)", "result": 96, "unit": "%"}, {"measurement": "intact (%) under 10 mM GSH", "setting": "[1]; 8 h, Data 3, 50 μM", "result": 95.7, "unit": "%"}, {"measurement": "remained intact with 10 mM GSH at 2 μM", "setting": "[1]; 12 h, 2 μM (below CMC), HPLC–MS 520 nm, mean of n = 3", "result": 95, "unit": "%"}, {"measurement": "remained intact with 10 mM GSH", "setting": "[1]; 12 h, 50 μM, HPLC–MS peak area 520 nm, mean of n = 3", "result": 96, "unit": "%"}, {"measurement": "intact (%) under 10 mM GSH at 2 μM", "setting": "[1]; 12 h, Data 1, 2 μM (below CMC)", "result": 96, "unit": "%"}, {"measurement": "intact (%) under 10 mM GSH", "setting": "[1]; 12 h, Data 1, 50 μM", "result": 94.9, "unit": "%"}, {"measurement": "intact (%) under 10 mM GSH at 2 μM", "setting": "[1]; 12 h, Data 2, 2 μM (below CMC)", "result": 95.4, "unit": "%"}, {"measurement": "intact (%) under 10 mM GSH", "setting": "[1]; 12 h, Data 2, 50 μM", "result": 97.6967, "unit": "%"}, {"measurement": "intact (%) under 10 mM GSH at 2 μM", "setting": "[1]; 12 h, Data 3, 2 μM (below CMC)", "result": 97, "unit": "%"}, {"measurement": "intact (%) under 10 mM GSH", "setting": "[1]; 12 h, Data 3, 50 μM", "result": 96.3405, "unit": "%"}, {"measurement": "accumulation at the tumor tissue over time", "setting": "[2]; 3.67 μmol·kg^−1 i.v., 0-6 hours, HPLC–MS 520 nm, n = 5", "result": "continuous increase in the accumulation of RGD-Dox at the tumor site within the first 0-2 hours, followed by a gradual decrease"}, {"measurement": "accumulation of RGD-Dox in tumor tissues", "setting": "[2]; 6 h, Data 3", "result": 0.09596, "unit": "nmol/g"}, {"measurement": "tissue level at time molar at 0.5 h", "setting": "[2]; Data 1", "result": 0.253, "unit": "nmol/g"}, {"measurement": "tissue level at time molar at 0.5 h", "setting": "[2]; Data 2", "result": 0.122, "unit": "nmol/g"}, {"measurement": "tissue level at time molar at 0.5 h", "setting": "[2]; Data 3", "result": 0.145, "unit": "nmol/g"}, {"measurement": "tissue level at time molar at 0.5 h", "setting": "[2]; Data 4", "result": 0.161, "unit": "nmol/g"}, {"measurement": "tissue level at time molar at 0.5 h", "setting": "[2]; Data 5", "result": 0.185, "unit": "nmol/g"}, {"measurement": "tissue level at time molar at 1 h", "setting": "[2]; Data 1", "result": 0.311, "unit": "nmol/g"}, {"measurement": "tissue level at time molar at 1 h", "setting": "[2]; Data 2", "result": 0.321, "unit": "nmol/g"}, {"measurement": "tissue level at time molar at 1 h", "setting": "[2]; Data 3", "result": 0.226, "unit": "nmol/g"}, {"measurement": "tissue level at time molar at 1 h", "setting": "[2]; Data 4", "result": 0.407, "unit": "nmol/g"}, {"measurement": "tissue level at time molar at 1 h", "setting": "[2]; Data 5", "result": 0.29, "unit": "nmol/g"}, {"measurement": "tissue level at time molar at 2 h", "setting": "[2]; Data 1", "result": 0.249, "unit": "nmol/g"}, {"measurement": "tissue level at time molar at 2 h", "setting": "[2]; Data 2", "result": 0.239, "unit": "nmol/g"}, {"measurement": "tissue level at time molar at 2 h", "setting": "[2]; Data 3", "result": 0.408, "unit": "nmol/g"}, {"measurement": "tissue level at time molar at 2 h", "setting": "[2]; Data 4", "result": 0.321, "unit": "nmol/g"}, {"measurement": "tissue level at time molar at 2 h", "setting": "[2]; Data 5", "result": 0.3, "unit": "nmol/g"}, {"measurement": "tissue level at time molar at 4 h", "setting": "[2]; Data 1", "result": 0.296, "unit": "nmol/g"}, {"measurement": "tissue level at time molar at 4 h", "setting": "[2]; Data 2", "result": 0.245, "unit": "nmol/g"}, {"measurement": "tissue level at time molar at 4 h", "setting": "[2]; Data 3", "result": 0.274, "unit": "nmol/g"}, {"measurement": "tissue level at time molar at 4 h", "setting": "[2]; Data 4", "result": 0.16, "unit": "nmol/g"}, {"measurement": "tissue level at time molar at 4 h", "setting": "[2]; Data 5", "result": 0.217, "unit": "nmol/g"}, {"measurement": "tissue level at time molar at 6 h", "setting": "[2]; 6 h, Data 1", "result": 0.0949, "unit": "nmol/g"}, {"measurement": "tissue level at time molar at 6 h", "setting": "[2]; 6 h, Data 2", "result": 0.0855, "unit": "nmol/g"}, {"measurement": "tissue level at time molar at 6 h", "setting": "[2]; 6 h, Data 4", "result": 0.0867, "unit": "nmol/g"}, {"measurement": "tissue level at time molar at 6 h", "setting": "[2]; 6 h, Data 5", "result": 0.129, "unit": "nmol/g"}]}]}
